From the supplement of paper PMC10567573
± gives the standard deviation.

Experiment: protein stability index of a GFP-peptide fusion (GPS, HEK-293T) (PSI 1-6); higher = more stable
[1] = treatment: DMSO, c terminus: a fixed tail appended
[2] = treatment: MLN4924 1 uM, 8 h, c terminus: a fixed tail appended
[3] = treatment: DMSO, c terminus: native
[4] = treatment: MLN4924 1 uM, 8 h, c terminus: native
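Note: 24-mer peptide tiles fused after GFP, lentivirally expressed, FACS-sorted into six equal bins by GFP/DsRed ratio, decoded by Illumina sequencing, PSI is the read-weighted mean bin number.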

Sequence	protein stability index [1]	protein stability index [2]	protein stability index [3]	protein stability index [4]
RLEKAVAAAYTFLQRNPKHELTAK [P3H4]	2.32 ± 0.12	2.49 ± 0.29	–	–
FLSGMEAAPRTLAAHPPLPLLPPA [TBX6]	2.95 ± 0.41	3.15 ± 0.26	–	–
VGMNFLHCMAPPLLHLDLKPANIL [RIPK4]	2.73 ± 0.57	2.14 ± 0.63	–	–
TEQLWRIFAGVHDEKAKPRDRQQA [TLE6]	3.45 ± 0.26	3.76 ± 0.23	–	–
LVPDASKQRLMENTEDWRPRPGTG [PDLIM7]	4.47 ± 0.2	4.53 ± 0.32	–	–
PRAAGTDGSDFQHRERVAMHYQMS [JAGN1]	3.96 ± 0.25	4.06 ± 0.18	–	–
RFSRQCVVDKDKRNQCRYCRLKKC [HNF4A]	3.22 ± 0.46	3.5 ± 0.61	–	–
ESQASRKEEGLPEEEPSHVTGREG [ZNF8]	5.62 ± 0.1	5.59 ± 0.2	–	–
MQFLIRSHECKPEGYEFCHNRKVL [PPEF2]	2.28 ± 0.34	2.55 ± 0.18	–	–
FPYEYSYGLQGGMAFLDKRLQVKE [ATL3]	2.53 ± 0.1	2.69 ± 0.12	–	–
IEKEYQPHVIVSTTGPNPFTTLTD [ADD1]	3.74 ± 0.25	3.9 ± 0.23	–	–
EQVANKGEPLALPLDAGEYCVPRG [BEX1]	4.86 ± 0.29	4.79 ± 0.27	–	–
TGFTVNVAWNGPRMGDADYLAAWH [HDAC6]	2.43 ± 0.52	2.18 ± 0.26	–	–
QPSDRLMTEKQQEEAEWESINVLL [CEP70]	4.38 ± 0.11	4.33 ± 0.12	–	–
FKKVLDLNPGFQDATLSLKQTILD [TTC32]	2.7 ± 0.24	2.86 ± 0.2	–	–
ADLWYLFGDLSLSLVTVGKHLTAR [POMT2]	3.17 ± 0.74	2.56 ± 0.8	–	–
ITVAELREAVPALLGEPLAGPELD [CABP4]	3.7 ± 0.39	3.84 ± 0.44	–	–
NLNAATDDPENKKTSSSSKAGFTA [CDC14A]	5.17 ± 0.16	5.02 ± 0.062	–	–
LVYENFYADFGPLNLAMVYRYCCK [CDC14A]	2.8 ± 0.27	2.5 ± 0.55	–	–
SSSRPISPGLSYASHTVGFTPPTS [CCDC6]	3.54 ± 0.22	3.74 ± 0.15	–	–
SSVICNDITAYLFGFFFGRTPLIK [CDS1]	2.13 ± 1.2	2.02 ± 0.082	–	–
RNHGILMETHKELKPLLSPSSETT [LYSMD4]	4.49 ± 0.14	4.62 ± 0.3	–	–

Sequence	protein stability index [1]	protein stability index [2]	protein stability index [3]	protein stability index [4]
DTGLFSRSKSGSEEVLCDSCIGNK [TRIM29]	4.61 ± 0.1	4.92 ± 0.23	–	–
YRHFLKSPNFDGWFKTRRKEMTQK [DENND6A]	2.83 ± 0.37	3.24 ± 0.12	–	–
ETLLGDPKRRMRYFDPLRNEYFFD [KCNA3]	2.58 ± 0.37	2.79 ± 0.29	–	–
ELANGKPQTRSGPECGLAKKPPEE [ADAMTSL2]	–	4.78 ± 0.42	–	–
EVLEWYTAKDFIVGKSLTILGRTF [EFHC1]	3.13 ± 0.62	2.62 ± 0.61	–	–
AQEDSLNKLALQYGCKVADIKKVN [LYSMD4]	3.41 ± 0.14	3.71 ± 0.15	–	–
FTTNKCKGFGFVTMTNYDEAAMAI [ELAVL3]	2.49 ± 0.65	2.51 ± 0.14	–	–
HGHLILHSMHKYQPRIHLVRAAQL [TBX6]	2.1 ± 0.29	2.07 ± 0.27	–	–
SCKEGLSPRGPAPGEEKFENLEGV [ZNF263]	5.37 ± 0.16	5.23 ± 0.36	–	–
QARTQKLQGLIPGARYEVTVVSVR [TNXB]	–	2.22 ± 0.42	–	–
GNPFLDVPQALSATTYKHGVLTRK [PSD2]	4.08 ± 0.3	4.18 ± 0.4	–	–
VKGCSMYVALFPCNECAKLIIQAG [DCTD]	2.97 ± 0.37	2.8 ± 0.49	–	–
NLSEFQHVISRSPDFASSFKIVL [CIB1]	–	–	2.29 ± 0.45	2.32 ± 0.44
LFVADAYKGLFEVNPWKREVKLLL [APMAP]	2.56 ± 0.27	2.34 ± 0.9	–	–
WNILKTIALGQMLSLCICGTAITS [SLC35F2]	3.03 ± 0.37	3.03 ± 0.71	–	–
PMQESKAEGNNQAPGEEEEEEEEA [CHGA]	5.49 ± 0.39	5.74 ± 0.15	–	–
ILSLEGGYNLRALAEGVSASLHTL [HDAC6]	2.15 ± 0.79	2.12 ± 0.39	–	–
WMMQNLLLEEGGLVQVESVNLQVA [UFD1]	2.1 ± 0.29	2.33 ± 0.59	–	–
LPIIQSNQVSSNSWGIAGETELAL [DLC1]	3.52 ± 0.48	3.63 ± 0.2	–	–
PPTLQEAGLSHTEVLFVQDLTDE [FAF2]	–	–	4.88 ± 0.25	4.92 ± 0.15
GHSSSRDDYPSRGYSDRDGYGRDR [RBMX]	4.87 ± 0.18	4.88 ± 0.16	–	–
LPPPCAALWCSGHLNGHAMCQTKH [ADAMTS4]	3.13 ± 0.24	3.17 ± 0.3	–	–

Sequence	protein stability index [1]	protein stability index [2]	protein stability index [3]	protein stability index [4]
KNNICFMSHHQEELVPKQPQKRKP [SLC2A12]	4.31 ± 0.14	4.64 ± 0.3	–	–
STCDTLGMADVGTVCDPARSCAIV [ADAMTS4]	3.92 ± 0.34	3.69 ± 0.083	–	–
SLRENDFIEIELDRQELTYQELLR [ANKRD40]	3.37 ± 0.62	3.57 ± 0.39	–	–
AALQRSLAAALAQHSVPLQLELRA [TRADD]	2.89 ± 1.2	2.46 ± 0.73	–	–
GEEQSQYMHVGSCQHLSSSAEELR [KCNA3]	4.83 ± 0.25	4.52 ± 0.2	–	–
MHMVDLMSSIICEGDTVSQELLDT [PDS5B]	3.6 ± 0.31	3.57 ± 0.14	–	–
RLLQAQLQAQKEELQSLMHQPKGL [PBXIP1]	2.91 ± 0.14	2.9 ± 0.26	–	–
QWILDKQDLLKERQKDLKFLSEEE [CCNC]	4.43 ± 0.26	4.53 ± 0.097	–	–
KLTDKHETVVSYLPLSHIAAQMMD [ACSBG2]	2.66 ± 0.4	2.98 ± 0.43	–	–
VSREENREDKATIKCETSPPSSPR [PPFIA4]	5.49 ± 0.48	5.53 ± 0.21	–	–
HVGWLLVRKHPAVKEKGSTLDLSD [SCD]	2.3 ± 0.26	2.48 ± 0.45	–	–
SSCVKYLIFLSNFPFSLLGLLALA [TSPAN10]	2.94 ± 0.35	2.93 ± 0.35	–	–
VLEVRTENLKQQRSRREQFSRAPV [STX5]	3.4 ± 0.45	3.63 ± 0.41	–	–
HLEDWLEKRAKRLSSAPSSRAEPI [ZMAT5]	4.26 ± 0.78	3.58 ± 0.081	–	–
LSSPEFSELCIWLGSQIKSLCNLE [FAM98B]	2.17 ± 0.81	2.76 ± 0.82	–	–
FSDSSMDHFQKFLPTVGGQLGTAG [MYOZ1]	2.78 ± 0.31	3.23 ± 0.34	–	–
KSPQFNRYFYLLENIAWVKSYNIC [PDS5B]	2.17 ± 0.19	2.27 ± 0.14	–	–
TIKVSYARPSSASIRDANLYVSGL [ELAVL3]	2.37 ± 0.076	2.23 ± 0.3	–	–
RLSGAGPAEEAGPEGGLEEPDALD [FOXJ1]	5.51 ± 0.31	5.59 ± 0.2	–	–
QASCDEAHKMKFSDLFSLAEEYED [INTS3]	4.61 ± 0.23	4.77 ± 0.27	–	–
TFPFKILGDSGLGPWQLNVFVCRV [P2RY14]	3.47 ± 0.73	3.26 ± 1.5	–	–
VLFSVAGGLFVGKEGPMIHSGSVV [CLCN6]	2.58 ± 0.34	2.74 ± 0.5	–	–
